Experimental data: patent US20140072613A1 (published 2014)

What was measured:
Assay in all cases: cell-based or functional assay
HIPK3(h) = HIPK3(h) (human, UniProt Q9H422 163-562, limits assumed)
PAK5(h) = PAK5(h) (human, UniProt Q9P286 1-719, limits assumed)
CK1γ1(h) = CK1γ1(h) (human, UniProt Q9HCP0 1-422)
Plk1(h) = Plk1(h) (human, UniProt P53350 1-603)
c-RAF(h) = c-RAF(h) (human, UniProt P04049 306-648, limits assumed)
ACK1(h) = ACK1(h) (human, UniProt Q07912 110-476, limits assumed)
cKit(V560G)(h) = cKit(V560G)(h) (human, UniProt P10721 544-976)
CK2α2(h) = CK2α2(h) (human, UniProt P19784 1-350)
SRPK2(h) = SRPK2(h) (human, UniProt P78362 1-688, limits assumed)
EGFR(L858R)(h) = EGFR(L858R)(h) (human, UniProt P00533 696-1210, limits assumed)
TLK2(h) = TLK2(h) (human, UniProt Q86UE8 1-772, limits assumed)

Row | Binder | % activity, 100 µM (HIPK3(h)) [%] | % activity, 100 µM (PAK5(h)) [%] | % activity, 100 µM (CK1γ1(h)) [%] | % activity, 100 µM (Plk1(h)) [%] | % activity, 100 µM (c-RAF(h)) [%] | % activity, 100 µM (ACK1(h)) [%] | % activity, 100 µM (cKit(V560G)(h)) [%] | % activity, 100 µM (CK2α2(h)) [%] | % activity, 100 µM (SRPK2(h)) [%] | % activity, 100 µM (EGFR(L858R)(h)) [%] | % activity, 100 µM (TLK2(h)) [%]
1 | FAKLAARLYRKALARQLGVAA [MMI-0300] | 93 | 110 | 111 | – | – | – | – | – | – | – | –
2 | KAFAKLAARLYRKALARQLGVAA [MMI-0400] | – | – | – | 119 | 102 | 95 | 124 | 96 | 97 | 52 | 151
